The text below walks through data of patent publication US20150098945A1 (Daiichi Sankyo, published 2015).

Substitutions are numbered along the chain they refer to.

Experiment [1] addresses T1, N-terminal FLAG-tagged cynomolgus monkey ROBO4, cynoROBO4-2 (pCI-FLAG-cynoROBO4-2) (cynomolgus monkey, UniProt Q8WZ75 28-1007 (human entry)).
T1 chain: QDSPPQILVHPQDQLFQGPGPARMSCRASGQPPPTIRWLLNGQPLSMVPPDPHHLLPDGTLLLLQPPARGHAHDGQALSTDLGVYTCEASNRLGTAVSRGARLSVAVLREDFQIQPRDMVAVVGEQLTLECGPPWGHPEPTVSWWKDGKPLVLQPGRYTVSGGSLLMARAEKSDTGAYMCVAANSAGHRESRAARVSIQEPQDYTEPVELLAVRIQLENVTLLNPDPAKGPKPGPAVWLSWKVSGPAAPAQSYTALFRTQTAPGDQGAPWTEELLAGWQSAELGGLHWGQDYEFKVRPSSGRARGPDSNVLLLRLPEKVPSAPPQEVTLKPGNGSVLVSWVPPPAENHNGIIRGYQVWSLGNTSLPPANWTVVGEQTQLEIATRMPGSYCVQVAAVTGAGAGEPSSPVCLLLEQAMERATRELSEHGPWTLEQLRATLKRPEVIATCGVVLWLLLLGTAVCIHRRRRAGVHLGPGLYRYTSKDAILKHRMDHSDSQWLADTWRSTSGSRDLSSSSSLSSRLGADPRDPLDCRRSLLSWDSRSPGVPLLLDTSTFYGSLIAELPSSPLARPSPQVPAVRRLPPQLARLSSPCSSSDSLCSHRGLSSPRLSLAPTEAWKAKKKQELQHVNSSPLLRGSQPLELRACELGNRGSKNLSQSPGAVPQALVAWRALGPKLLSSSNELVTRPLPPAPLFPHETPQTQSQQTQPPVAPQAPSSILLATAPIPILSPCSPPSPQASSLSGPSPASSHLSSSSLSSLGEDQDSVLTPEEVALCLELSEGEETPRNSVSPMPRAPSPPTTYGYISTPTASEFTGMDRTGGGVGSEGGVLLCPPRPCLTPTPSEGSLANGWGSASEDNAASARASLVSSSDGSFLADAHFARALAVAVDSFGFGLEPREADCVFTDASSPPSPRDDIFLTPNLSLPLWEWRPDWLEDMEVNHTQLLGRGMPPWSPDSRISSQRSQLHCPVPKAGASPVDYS
The experiment is described as follows: flow cytometry (FC500), HEK293 cells transfected with pCI-FLAG-cynoROBO4-2, antibody at 10 µg/mL, FITC goat anti-human IgG Fc; control histogram IgG (human IgG).

The target in experiment [2] is T2, mouse ROBO4 (pCI-mROBO4-transfected HEK293 cells) (mouse, UniProt Q8C310 28-1012).
T2 sequence: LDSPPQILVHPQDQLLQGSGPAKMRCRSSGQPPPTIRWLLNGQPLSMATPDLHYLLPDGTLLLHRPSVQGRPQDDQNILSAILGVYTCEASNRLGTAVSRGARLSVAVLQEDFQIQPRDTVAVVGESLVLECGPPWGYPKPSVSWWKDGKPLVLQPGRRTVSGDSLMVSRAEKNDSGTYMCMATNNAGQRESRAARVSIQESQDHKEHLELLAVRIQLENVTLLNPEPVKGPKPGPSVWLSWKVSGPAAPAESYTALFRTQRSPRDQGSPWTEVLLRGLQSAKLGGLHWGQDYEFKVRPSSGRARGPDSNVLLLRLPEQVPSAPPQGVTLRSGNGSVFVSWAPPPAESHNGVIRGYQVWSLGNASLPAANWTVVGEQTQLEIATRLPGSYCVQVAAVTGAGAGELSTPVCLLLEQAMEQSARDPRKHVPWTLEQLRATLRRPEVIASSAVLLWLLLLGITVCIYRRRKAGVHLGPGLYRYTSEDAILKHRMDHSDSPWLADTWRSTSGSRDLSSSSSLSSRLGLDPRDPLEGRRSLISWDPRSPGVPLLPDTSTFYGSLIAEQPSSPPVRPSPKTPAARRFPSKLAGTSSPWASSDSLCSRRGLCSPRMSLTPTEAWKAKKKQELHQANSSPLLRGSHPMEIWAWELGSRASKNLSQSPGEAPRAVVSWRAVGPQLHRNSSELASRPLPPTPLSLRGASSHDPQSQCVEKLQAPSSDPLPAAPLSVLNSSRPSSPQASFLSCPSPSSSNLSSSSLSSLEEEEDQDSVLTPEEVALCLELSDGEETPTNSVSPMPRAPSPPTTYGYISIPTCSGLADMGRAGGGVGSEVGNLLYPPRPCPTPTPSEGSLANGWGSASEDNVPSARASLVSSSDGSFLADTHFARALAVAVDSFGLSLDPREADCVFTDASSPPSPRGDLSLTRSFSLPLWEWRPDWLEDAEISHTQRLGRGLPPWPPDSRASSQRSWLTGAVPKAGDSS
Put plainly: flow cytometry (FC500), HEK293 cells transfected with pCI-mROBO4, FITC goat anti-human IgG Fc; control histogram IgG (human IgG).

B1: humanized MAb1 antibody H-1143 (antibody, human IgG2, kappa, V domains shown)
VH: EVQLVESGGGLVQPGGSLRLSCAASGFTFSTYAMSWVRQAPGKGLEWVATISQGGTYTYYPDSVKGRFTISRDNAKNTLYLQMNSLRAEDTAVYYCARLIYYDYLDYWGQGTLVTVSS
VL: DIVMTQSPLSLPVTLGEPASISCRSSQSLENENKNLYLNWYLQKPGQSPQLLIYRVSNRFSGVPDRFSGSGSGTDFTLKISRVEAEDVGVYYCLQVTHVPWTFGPGTKVDIKR
notes: Human IgG2 / kappa constant regions; also called hMAb1-H2-type heavy chain + hMAb1-L2-type light chain
In the case of B1, the binding result in experiment [1] was “binds”.

B2: humanized MAb1 antibody H-2140 (antibody, human IgG2, kappa, V domains shown)
VH: B1 VH with G44R
VL: B1 VL with E32S, K34G, L36T
notes: Human IgG2 / kappa constant regions; also called hMAb1-H4-type heavy chain + hMAb1-L1-type light chain
As to B2, the binding result in experiment [2] is recorded as “no binding (tested: 10 µg/mL)”.
